Where a chain is given by its changes, count along the chain named.
T1: MARV (Musoke strain) GP (Marburg virus (MARV), Musoke strain, UniProt P35253 19-648)
T1 sequence: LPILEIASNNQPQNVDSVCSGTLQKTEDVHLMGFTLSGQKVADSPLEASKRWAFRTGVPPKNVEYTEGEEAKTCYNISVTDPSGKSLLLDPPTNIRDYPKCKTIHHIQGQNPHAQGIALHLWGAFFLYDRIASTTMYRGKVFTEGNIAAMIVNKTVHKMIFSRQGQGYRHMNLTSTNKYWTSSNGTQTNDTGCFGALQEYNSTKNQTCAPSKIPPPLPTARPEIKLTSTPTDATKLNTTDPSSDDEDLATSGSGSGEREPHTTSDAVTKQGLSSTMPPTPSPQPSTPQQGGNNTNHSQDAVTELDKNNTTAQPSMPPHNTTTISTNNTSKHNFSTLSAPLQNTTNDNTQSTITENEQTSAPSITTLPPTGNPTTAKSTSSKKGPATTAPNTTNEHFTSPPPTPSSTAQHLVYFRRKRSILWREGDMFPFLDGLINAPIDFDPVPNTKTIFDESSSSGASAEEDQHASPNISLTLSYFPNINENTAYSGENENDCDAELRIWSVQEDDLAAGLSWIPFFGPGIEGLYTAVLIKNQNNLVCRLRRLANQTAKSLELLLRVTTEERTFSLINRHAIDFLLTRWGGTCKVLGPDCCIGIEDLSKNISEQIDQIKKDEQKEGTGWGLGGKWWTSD

T2: SUDV VLP (Sudan virus (SUDV), UniProt Q66814 33-676)
T2 sequence: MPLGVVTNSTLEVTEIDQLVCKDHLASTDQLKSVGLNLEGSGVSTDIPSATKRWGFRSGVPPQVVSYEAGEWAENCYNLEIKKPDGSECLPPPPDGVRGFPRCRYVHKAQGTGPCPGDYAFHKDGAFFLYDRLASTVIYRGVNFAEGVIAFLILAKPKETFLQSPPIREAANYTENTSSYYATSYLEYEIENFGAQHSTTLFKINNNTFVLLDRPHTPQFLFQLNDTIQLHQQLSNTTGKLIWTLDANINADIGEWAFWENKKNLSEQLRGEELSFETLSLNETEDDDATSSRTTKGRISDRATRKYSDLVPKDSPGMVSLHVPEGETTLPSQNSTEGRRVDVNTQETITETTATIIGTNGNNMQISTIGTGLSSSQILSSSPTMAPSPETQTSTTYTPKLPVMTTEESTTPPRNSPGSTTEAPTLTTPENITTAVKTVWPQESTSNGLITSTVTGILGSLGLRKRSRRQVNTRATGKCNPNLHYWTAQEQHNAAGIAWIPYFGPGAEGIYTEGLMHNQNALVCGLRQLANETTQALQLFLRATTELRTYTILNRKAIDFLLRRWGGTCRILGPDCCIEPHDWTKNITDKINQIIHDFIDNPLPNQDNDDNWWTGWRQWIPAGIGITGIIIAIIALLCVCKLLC

T3: EBOV VLP (Ebola virus (EBOV), UniProt Q05320 33-676)
T3 sequence: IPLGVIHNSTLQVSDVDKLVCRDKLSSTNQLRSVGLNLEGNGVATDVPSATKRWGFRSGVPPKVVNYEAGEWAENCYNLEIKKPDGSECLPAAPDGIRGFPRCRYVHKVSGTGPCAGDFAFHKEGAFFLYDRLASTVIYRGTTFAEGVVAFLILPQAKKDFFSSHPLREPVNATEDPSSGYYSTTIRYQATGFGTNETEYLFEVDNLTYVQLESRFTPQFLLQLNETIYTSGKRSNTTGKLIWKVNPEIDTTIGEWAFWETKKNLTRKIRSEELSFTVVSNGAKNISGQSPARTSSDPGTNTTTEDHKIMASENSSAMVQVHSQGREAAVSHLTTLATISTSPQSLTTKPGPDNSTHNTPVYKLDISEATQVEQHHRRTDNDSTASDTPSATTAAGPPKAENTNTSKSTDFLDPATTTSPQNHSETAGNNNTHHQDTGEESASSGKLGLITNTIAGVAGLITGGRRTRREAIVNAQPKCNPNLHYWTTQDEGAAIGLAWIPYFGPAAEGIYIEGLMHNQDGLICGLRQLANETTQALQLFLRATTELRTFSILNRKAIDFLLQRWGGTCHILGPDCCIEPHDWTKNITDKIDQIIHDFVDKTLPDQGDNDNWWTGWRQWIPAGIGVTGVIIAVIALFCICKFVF

B1: FVM01P (antibody, V domains shown)
VH: QVQLQESGPGLVKPSETLSLTCTVSGASISNYRWNWIRQPPGKGLEWIGEINGYSGSTNYNPSLKSRVTISKDASKNQFSLKLTSVTAADTAVYYCPIIGGFTLEWFDVWGPGVLVTVSS
VL: DVVLTQSPSSLSASVGDRVTITCRASQGIRNYLNWYQQKPRKAPKLLIYAASSLQSGVPSRFSGSGSGTEFTLTISSLQAEDFATYYCLQGYRTPFTFGPGTKLDIKR
B2: FVM20 (antibody, V domains shown)
VH: EVQLVESGAEVKRPGESLTISCKTSGYSFTGSWISWVRQMPGKGLEWLGSIYPGDSETKYNPSFQGHVTISADKSVTTTYLKWSSLKASDTATYYCVKGSETWGQGVLVTVSS
VL: NFMLTQSASLSASPGASASLTCTFSGGINVAGYHIFWYQQNPGSPPRYLLRYKSDSEKDQGSGVPSRFSGSKDASANTGILRISGLQSEDEADYYCAIGHSSGWIFGGGTRLTVL
B3: FVM35 (antibody, V domains shown)
VH: B2 VH with E6Q, G31S, S32Y, S35T
VL: B2 VL with N1Q, F2P, M3V, S7P, H34N, F36L, N41K, P42A, E57T
B4: FVM37 (antibody, V domains shown)
VH: B2 VH with E1Q, E6Q, T19K, S28R, G31S
VL: B2 VL with N1S, F2S, M3E, S7P, H34N, F36L, N41K, P42A, E57T
B5: FVM38 (antibody, V domains shown)
VH: B2 VH with E1Q, E6Q, G31D, S35G, L48M, G49A, G54D
VL: B2 VL with N1Q, F2P, M3V, S7P, H34N, F36L, N41K, P42A, E57T
B6: FVM40 (antibody, V domains shown)
VH: B2 VH with E6Q, G31D, L48M
VL: B2 VL with N1Q, F2P, S7P, H34N, F36L, N41K, P42A, E57T
B7: FVM41 (antibody, V domains shown)
VH: B2 VH with E6Q, T19K, G31D, S32T, L48M
VL: ETVVTQPASLSASPGASASLTCTFSGGINVAGYNILWYQQKAGSPPRYLLRYKSDSTKDQGSGVPSRFSGSKDASANTGILRISGLQSEDEADYYCAIGHSSGVLFGGGTRLTVL
B8: FVM10 (antibody, V domains shown)
VH: QVQLVQSGAEVKRPGESLKISCQTSGYSFTDSWVAWVRQMPGKGLEWLGSIYPGDSETKYNPSFQGHVTISADKSISTAYLQWSSLKASDTATYYCAKGSETWGQGLRVTVSS
VL: B7 VL with E1Q, T2A, V3G, V4L, A42P, T57D, V104W, L105I
B9: FVM12 (antibody, V domains shown)
VH: B2 VH with E6Q, G26E, L48M, E57D, K59R, N61S, H67Q
VL: QPVLTQPASLSASLGASASLTCTFSGGINVAGYNILWYQQKPGSPPRFLLRYKSDSDNVQGSGVPSHFSGSKDASTNTGILRISGLQSEDEADYYCAIGHSSGWVFGGGTRLTVL
B10: FVM13 (antibody, V domains shown)
VH: EVQLVQSGAEVKRPGESLKISCKTSGYTFTSSWISWVRQMPGKGLEWLGSIYPGDSDTRYNPSFQGHVTISADTSIITTHLQWSSLKASDTATYYCVKGSETWGQGVLVTVSS
VL: B7 VL with E1K, T2P, V3M, V4L, A8T, V104W, L105I
B11: FVM17 (antibody, V domains shown)
VH: B2 VH with E6Q, G31D, L48M, E57D, T58A, K59R, V76I, T77S
VL: B9 VL with P2A, L4V, L14P, A16T, T76A, V105I
B12: FVM18 (antibody, V domains shown)
VH: B2 VH with E1Q, E6Q, T19K, G31N, S32I
VL: NFMLTQPASLSASPGASASLTCTFSGGINVAGYHILWYQQKPGSPPRYLLRYKSDSEKDQGSGVPSRFSGSKDASANRGILRISGLQSEDEADYYCAIGHSSSGWVFGGGTRLTVL
B13: FVM19 (antibody, V domains shown)
VH: B2 VH with E1Q, E6Q, G31D, I34V, S35A, E57D
VL: B2 VL with N1K, F2P, S7P, N41K, E57D, D59G, W104L, I105L
B14: FVM21 (antibody, V domains shown)
VH: EVQLVESGAEVKRPGESLTISCKTSGYSFTDSWVAWVRQMPGKGLEWLGSIYPGDSETKYNPSFQGHVTISADKSISTTYLQWSSLRASDTATYYCVKGADDWGPGLLVTVSS
VL: B7 VL with E1S, T2S, V3E, V4L, T57D, D59G, V104W, L105I
B15: FVM23 (antibody, V domains shown)
VH: B2 VH with E1Q, E6Q, L48M, E57D, K59T, V76I, T77S, T79A, K82Q, S84T
VL: B7 VL with E1S, T2Y, V3E, V4L, V104L, L105I, G108A
B16: FVM24 (antibody, V domains shown)
VH: EVQLVQSGAEVKRPGESLKISCKTSGYSFTDSWVAWVRQMPGKGLEWMGSIYPGDFQTRYNPSFQGHVTLSADKSISTTYLQWSSLKASDTATYYCVKGSETWGPGVLVTVSS
VL: B7 VL with E1S, T2S, V3G, V4L, A74V, E89D, V104W, L105I
B17: FVM25 (antibody, V domains shown)
VH: EVQLVHSGAEVKRPGESLTISCKTSGYTFTDYWIAWVRQMPGKGLEWMASIYPDDSDTRYNPSFQGHVTISADKSISTTYLQWSSLRASDTATYYCVKGSETWGQGVLVTVSS
VL: B9 VL with P2L, L14P, A16T
B18: FVM28 (antibody, V domains shown)
VH: EVQLVQSGAEVKRPGESLKISCQTSGYRFTSSWISWVRQMPGKGLEWMGAIDPSDSETRYSPSFQGQVTISADKSISTAYLKWSSLKASDTATYYCVKGSETWGQGVLVTVSS
VL: B12 VL with N1Q, F2A, M3A
B19: FVM32 (antibody, V domains shown)
VH: QVQLVQSGAEVKRPGESLRISCKTSGYSFTDSWVAWVRQMPGKGLEWLGSIYPGDSDTRYSPSFQGQVTISADKSITTAYLKWSSLKASDTATYYCVKGSETWGQGVLVTVSS
VL: QPVLTQPASLSASPGASASLTCTFNGGITVPGYDILWYQQKSGSPPRYLLRYKSDSTKDQGSGVPSRFSGSKDASTNTGILRISGLQSEDEADYYCAIGHSSGWIFGGGTRLTVL

Experiments:
MARV (Musoke strain) GP = biological target: T1, MARV (Musoke strain) GP; assay: GP ELISA, purified mAb
SUDV VLP = biological target: T2, SUDV VLP; assay: ELISA
EBOV VLP = biological target: T3, EBOV VLP; assay: ELISA

Binder	binding result (MARV (Musoke strain) GP)	EC50 (SUDV VLP)	EC50 (EBOV VLP)
B1	no binding	0.319 nM	0.459 nM
B2	no binding	32.9 nM	1.29 nM
B3		0.14 nM	0.233 nM
B4		0.127 nM	0.227 nM
B5		0.147 nM	0.253 nM
B6		0.113 nM	0.173 nM
B7		0.32 nM	0.36 nM
B8		0.687 nM	0.653 nM
B9		0.673 nM	0.622 nM
B10	no binding	0.144 nM	0.198 nM
B11		1.43 nM	0.767 nM
B12		1.08 nM	1.03 nM
B13		5.4 nM	0.967 nM
B14		0.373 nM	0.32 nM
B15		0.353 nM	0.367 nM
B16		3.2 nM	0.513 nM
B17		0.96 nM	0.473 nM
B18		0.58 nM	0.593 nM
B19		0.187 nM	0.66 nM

Reference: patent US20170334973A1 (INTEGRATED BIOTHERAPEUTICS, published 2017)
